According to paper PMC11164899, “A novel inhibitory BAK antibody enables assessment of non-activated BAK in cancer cells” (Cell Death and Differentiation, 2024):

T1: hBAKΔN22ΔC25Δcys (Homo sapiens, Δcys (cysteine to serine; position C166 from memory, not given))
T1 construct: BAK, human, lacking the N-terminal 22 residues and the C-terminal 25 residues (transmembrane anchor); wild-type cysteine residues replaced with serine; also called BAKΔTM; source: E. coli BL21 (DE3), purified (glutathione resin, HRV-3C cleavage, SEC Superdex S75)
T1 chain: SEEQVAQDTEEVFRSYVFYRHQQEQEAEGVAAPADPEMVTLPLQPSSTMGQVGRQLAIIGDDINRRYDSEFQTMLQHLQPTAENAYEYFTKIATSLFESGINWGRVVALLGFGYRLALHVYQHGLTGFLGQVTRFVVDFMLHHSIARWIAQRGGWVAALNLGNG

T2: mBAKΔN20ΔC25Δcys (Mus musculus, stabilised)
T2 construct: BAK, mouse, lacking the N-terminal 20 and the C-terminal 25 residues; wild-type cysteine residues replaced with serine; also called mouse BAK; source: E. coli BL21 (DE3), purified (glutathione resin, HRV-3C cleavage, SEC Superdex S75)
T2 chain: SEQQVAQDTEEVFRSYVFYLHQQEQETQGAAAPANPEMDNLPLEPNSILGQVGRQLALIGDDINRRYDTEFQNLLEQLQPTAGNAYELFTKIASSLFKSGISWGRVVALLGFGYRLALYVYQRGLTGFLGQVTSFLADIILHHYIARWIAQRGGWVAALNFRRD

T3: hBAKΔN22ΔC25Δcys M60G (Homo sapiens, M60G | Δcys (cysteine to serine; position C166 from memory, not given))
T3 construct: BAK, human, ΔN22ΔC25, wild-type cysteine residues replaced with serine, M60G; also called hBAK M60G; BAK M60G; source: E. coli BL21 (DE3), purified (glutathione resin, HRV-3C cleavage, SEC Superdex S75)
T3 chain: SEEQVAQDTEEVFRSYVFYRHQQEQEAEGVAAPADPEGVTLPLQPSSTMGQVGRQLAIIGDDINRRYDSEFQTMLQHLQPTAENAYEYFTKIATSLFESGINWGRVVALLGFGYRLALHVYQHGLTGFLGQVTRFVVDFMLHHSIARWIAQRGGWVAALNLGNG

T4: hBAKΔN22ΔC25Δcys M60W (Homo sapiens, M60W | Δcys (cysteine to serine; position C166 from memory, not given))
T4 construct: BAK, human, ΔN22ΔC25, wild-type cysteine residues replaced with serine, M60W; also called hBAK M60W; BAK M60W; source: E. coli BL21 (DE3), purified (glutathione resin, HRV-3C cleavage, SEC Superdex S75)
T4 chain: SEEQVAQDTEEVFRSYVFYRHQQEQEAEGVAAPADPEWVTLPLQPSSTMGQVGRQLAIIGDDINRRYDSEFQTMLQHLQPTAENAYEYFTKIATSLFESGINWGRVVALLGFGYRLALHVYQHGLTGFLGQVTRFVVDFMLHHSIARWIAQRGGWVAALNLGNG


Tests used:
[1] = target: T5, BAK, endogenous, in human leukaemia cell lines (Homo sapiens, UniProt Q16611); assay: native gel or EMSA; untreated membrane fractions incubated with antibody on ice for 30 min, solubilized with 1% digitonin, BN-PAGE, blot for BAK (gel-shift); details: one partner purified
T5 construct: BAK, endogenous in blood cancer cell lines established from patients with ALL or AML; the methods list RS4;11, MOLM-13, KG-1, HL-60, OCI-AML3, MV4;11 and THP-1; source: endogenous, membrane fractions of human ALL and AML cell lines, solubilized in 1% digitonin
T5 sequence (Q16611 whole entry): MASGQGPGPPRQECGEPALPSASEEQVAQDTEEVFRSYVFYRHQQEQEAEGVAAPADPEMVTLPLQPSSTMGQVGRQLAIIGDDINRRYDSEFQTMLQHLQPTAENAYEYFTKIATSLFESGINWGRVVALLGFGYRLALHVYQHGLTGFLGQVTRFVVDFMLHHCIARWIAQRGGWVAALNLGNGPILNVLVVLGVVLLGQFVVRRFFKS

[2] = target: T6, human BAK, full-length, in mitochondria-enriched membrane fractions of bak−/−bax−/− MEFs (Homo sapiens, UniProt Q16611); assay: immunoprecipitation; membrane fractions of MEFs expressing hBAK, no cBID, solubilized in 1% digitonin, pre-cleared; Protein G Sepharose with 4 μg antibody, 4 °C, 1-2 h; blot for BAK; details: one partner purified
T6 construct: BAK, human, full-length; also called hBAK; source: stably expressed in SV40-immortalized bak−/−bax−/− MEFs; permeabilized cells or membrane fractions, solubilized in 1% digitonin for IP and BN-PAGE

hBAKΔN22ΔC25Δcys [3] = target: T1, hBAKΔN22ΔC25Δcys; assay: SPR; 14G6 (about 150 RU) captured on a Protein A chip; BAK injected in a threefold dilution series (0.45-1000 nM), single-cycle kinetics; 25 °C, DPBS + 0.005% Tween-20; 1:1 binding model; mean ± SD of three experiments; details: both partners purified
mBAKΔN20ΔC25Δcys = target: T2, mBAKΔN20ΔC25Δcys; assay: as above; details: both partners purified
hBAKΔN22ΔC25Δcys M60G = target: T3, hBAKΔN22ΔC25Δcys M60G; assay: as above; details: both partners purified
hBAKΔN22ΔC25Δcys M60W = target: T4, hBAKΔN22ΔC25Δcys M60W; assay: as above; details: both partners purified
hBAKΔN22ΔC25Δcys [4] = target: T1, hBAKΔN22ΔC25Δcys; assay: SEC; 14G6 Fab mixed with a 1.5-fold excess of BAKΔTM; Superdex 200 Increase 10/300 in TBS; complex of ca 65 kDa; details: both partners purified

binding result [1]	binding result [2]	Kd (hBAKΔN22ΔC25Δcys [3])	koff (hBAKΔN22ΔC25Δcys [3])	kon (hBAKΔN22ΔC25Δcys [3])	Kd (mBAKΔN20ΔC25Δcys)	koff (mBAKΔN20ΔC25Δcys)	kon (mBAKΔN20ΔC25Δcys)	Kd (hBAKΔN22ΔC25Δcys M60G)	koff (hBAKΔN22ΔC25Δcys M60G)	kon (hBAKΔN22ΔC25Δcys M60G)	Kd (hBAKΔN22ΔC25Δcys M60W)	koff (hBAKΔN22ΔC25Δcys M60W)	kon (hBAKΔN22ΔC25Δcys M60W)	stoichiometry N (hBAKΔN22ΔC25Δcys [4])	Binder
binds	binds	10 nM	7e-05 s⁻¹	6000 M⁻¹ s⁻¹	1140 nM	0.00092 s⁻¹	810 M⁻¹ s⁻¹	0.6 nM	7e-05 s⁻¹	110000 M⁻¹ s⁻¹	9 nM	5e-05 s⁻¹	4900 M⁻¹ s⁻¹		14G6 antibody (antibody, V domains shown, mouse variable region, human constant region; The results call it a chimera with human constant regions; the immunoprecipitation methods call it '14G6 mouse monoclonal antibody'; Used as an AF488 conjugate for immunocytochemistry; also called clone 14G6; 14G6-AF488; source: mouse B cell cloning; recovered antibody variable regions expressed as chimeras containing human constant regions; copies: 2 …) VH: EVKLVESGAELVRPGTSVKVSCKASGYAFTNYLIEWVKQRPGQGLEWIGVINPGSGGTNYNEKFKGKATLTADKSSSTAYMQLTSLTSDDSAVYFCASPSLYGSFDYWGQGTTVTVSS VL: DIVMTQSHKFMSTSVGDRVSITCKASQDVGTAVAWYQQKPGQSPKLLIYWASTRHTGVPDRFTGSGSGTDFTLTISNVQSEDLADYFCQQYSSYRTFGGGTKLEIK
														1	14G6 Fab (Fab, V domains shown, Fab part of the heavy chain of m1; as the light chain of m1; also called Fab fragment of antibody 14G6; source: papain cleavage of the full-length antibody, purified by cation exchange (Mono S)) VH: EVKLVESGAELVRPGTSVKVSCKASGYAFTNYLIEWVKQRPGQGLEWIGVINPGSGGTNYNEKFKGKATLTADKSSSTAYMQLTSLTSDDSAVYFCASPSLYGSFDYWGQGTTVTVSS VL: DIVMTQSHKFMSTSVGDRVSITCKASQDVGTAVAWYQQKPGQSPKLLIYWASTRHTGVPDRFTGSGSGTDFTLTISNVQSEDLADYFCQQYSSYRTFGGGTKLEIK
